# Laboratory results: PMC12141571
# Conditions: phosphorylation at T188
Substance,other,enzymatic_activity
"Erk2: R65H+T188A vs R65H (HEK293, no EGF; TEY phosphorylation)",increases,
Erk2: T188D (recombinant; dual TEY phosphorylation by MEK1EE in vitro),"decreases, 2.2% dually phosphorylated (Erk2WT 12.5%)",
"Erk2: R65H+T188E, R65H+T188D (recombinant; dual TEY autophosphorylation)",decreases,
Erk2: T188A (recombinant; dual TEY phosphorylation by MEK1EE in vitro),"decreases, 2.2% doubly phosphorylated (Erk2WT 12.5%)",
"Erk2: T188E, T188D (HEK293 + EGF; TEY phosphorylation)",increases,
Erk2: T188C,,no change
Erk2: T188G,,"decreases, to about 6%"
Erk2: T188S,,increases
"Erk2: T188A (HEK293, no EGF; TEY phosphorylation)","increases, 2–6 fold",
"Erk2: T188E, T188D (recombinant protein, in vitro kinase assay)",,abolishes
"Erk2: T188A (recombinant protein, in vitro kinase assay)",,abolishes
Erk2: T188A (recombinant; spontaneous Tyr185 autophosphorylation),"increases, 84% monophosphorylated on Tyr185",
Erk2: T188A (HEK293 + EGF; TEY phosphorylation),increases,
Erk2: T188N,,abolishes

# Same assay, conditions: phosphorylation at T207
Substance,other,enzymatic_activity
Erk1: T207A (HEK293 + EGF; TEY phosphorylation),increases,
"Erk1: T207E, T207D (HEK293 + EGF; TEY phosphorylation)",increases,
"Erk1: T207E, T207D (recombinant protein, in vitro kinase assay)",,abolishes
"Erk1: T207A (recombinant protein, in vitro kinase assay)",,abolishes
"Erk1: T207A (HEK293, no EGF; TEY phosphorylation)","increases, 2–6 fold",
"Erk1: R84H+T207A vs R84H (HEK293, no EGF; TEY phosphorylation)",increases,
